The source of these data is IntAct's records for PubMed 26388029.

To fix the notation:
B1: Ubiquitin carboxyl-terminal hydrolase 1 (Homo sapiens), O94782 (parent)
chain: MPGVIPSESNGLSRGSPSKKNRLSLKFFQKKETKRALDFTDSQENEEKASEYRASEIDQVVPAAQSSPINCEKRENLLPFVGLNNLGNTCYLNSILQVLYFCPGFKSGVKHLFNIISRKKEALKDEANQKDKGNCKEDSLASYELICSLQSLIISVEQLQASFLLNPEKYTDELATQPRRLLNTLRELNPMYEGYLQHDAQEVLQCILGNIQETCQLLKKEEVKNVAELPTKVEEIPHPKEEMNGINSIEMDSMRHSEDFKEKLPKGNGKRKSDTEFGNMKKKVKLSKEHQSLEENQRQTRSKRKATSDTLESPPKIIPKYISENESPRPSQKKSRVKINWLKSATKQPSILSKFCSLGKITTNQGVKGQSKENECDPEEDLGKCESDNTTNGCGLESPGNTVTPVNVNEVKPINKGEEQIGFELVEKLFQGQLVLRTRCLECESLTERREDFQDISVPVQEDELSKVEESSEISPEPKTEMKTLRWAISQFASVERIVGEDKYFCENCHHYTEAERSLLFDKMPEVITIHLKCFAASGLEFDCYGGGLSKINTPLLTPLKLSLEEWSTKPTNDSYGLFAVVMHSGITISSGHYTASVKVTDLNSLELDKGNFVVDQMCEIGKPEPLNEEEARGVVENYNDEEVSIRVGGNTQPSKVLNKKNVEAIGLLGGQKSKADYELYNKASNPDKVASTAFAENRNSETSDTTGTHESDRNKESSDQTGINISGFENKISYVVQSLKEYEGKWLLFDDSEVKVTEEKDFLNSLSPSTSPTSTPYLLFYKKL

The assay covers variants of B1. The conditions noted are these: with WDR48, Q8TAF3-1.
Chain of WDR48, Q8TAF3-1 (Q8TAF3 whole entry): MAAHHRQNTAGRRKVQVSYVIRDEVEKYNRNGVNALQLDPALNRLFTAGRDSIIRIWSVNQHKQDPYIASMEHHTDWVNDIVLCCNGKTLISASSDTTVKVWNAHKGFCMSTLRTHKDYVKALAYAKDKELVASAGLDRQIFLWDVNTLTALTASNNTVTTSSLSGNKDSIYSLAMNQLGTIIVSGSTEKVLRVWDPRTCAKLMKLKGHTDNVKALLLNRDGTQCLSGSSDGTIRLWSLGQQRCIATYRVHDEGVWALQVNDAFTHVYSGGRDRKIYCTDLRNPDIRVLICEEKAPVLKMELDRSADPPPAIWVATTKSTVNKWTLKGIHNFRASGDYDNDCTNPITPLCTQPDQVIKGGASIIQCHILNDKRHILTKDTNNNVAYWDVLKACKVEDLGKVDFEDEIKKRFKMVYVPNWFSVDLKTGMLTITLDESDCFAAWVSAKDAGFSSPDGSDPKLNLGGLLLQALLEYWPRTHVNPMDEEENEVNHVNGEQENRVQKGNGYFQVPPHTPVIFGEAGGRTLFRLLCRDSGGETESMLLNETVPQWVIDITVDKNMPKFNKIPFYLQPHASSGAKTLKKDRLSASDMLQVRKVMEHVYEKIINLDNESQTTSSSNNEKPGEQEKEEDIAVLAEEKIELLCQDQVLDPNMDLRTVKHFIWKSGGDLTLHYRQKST
With E444K, the “effect of a mutation on the interaction” value was “disrupting interaction strength”.
